Data from the DeepSol protein solubility set.

assay: soluble on expression in E. coli; label from the status in PepcDB or PDB records

Sequence | soluble on expression in E. coli
MTTFRQHRWQSFLQGYEQRARILISCPDRPGIVAAVTSFLYEQGANIVESSQYSTDPEGGTFFLRLEFDCPNIAERKEEIEAAFAPIAAEFEMRWQLRLHNDIRRIAIFVSKAEHCLLELLWQWQAGELIADIALVISNHPDLRETVESFGIPYVHIPVTKETKADAEAEQIRLLRDYQIDTIVLARYMQILSPAFVAEFSGRIINIHHSFLPAFIGARPYERAYERGVKLIGATSHYVTDDLDEGPIIEQDVARVDHRHHPDDLKRIGRLIEKTVLARALRWHLEDRVIIHGNKTIVFY | soluble
MTATSDKVLKIQLRSASATVPTKGSATAAGYDIYASQDITIPAMGQGMVSTDISFTVPVGTYGRIAPRSGLAVKNGIQTGAGVVDRDYTGEVKVVLFNHSQRDFAIKKGDRVAQLILEKIVDDAQIVVVDSLEESARGAGGFGSTGN | not soluble
MAHHHHHHMKCELASLIKENAQLGREMRGTPQLRVPQETDVAWRLRRDVLLHSEYPHVAACPEKDVERKDGRAVVVFQESKLQGEPPERTAAQKRSRSDHTAVVSVDPSVLKARASSLGERIVGAAGPSFEPYTAPPSWKMAKVLVGHRGWVWGAAVDPSNSWFATGGGDGVVKVWDLTTGALKLNLTGHKEGVRALSLSTLSPYMFTGSDDHSVKCWDLERNEIIRDFHGHKGSVHCVSTHPSLDIVLSGGRDKTVRVWDVRTRSCVHLLLGHSDSVMSLAVQQEDPQAISGGSDGMVYLWDIASGRAFTRLTRHKKPVRGLALSRQRVLVSCGADNIRVWSLPTGEFLFNASTLDNGKETKKEKEQEPQRWSCCSVSPRNVLAVGSQEGRLLFFDWSHPQQGPYQATKTRSVPGTLPGEGGINGLAFDASGSRLITAESDKSAKVWRTKE | not soluble
GPGSMEQPKGINILITGTPGTGKTSMAEMIAAELDGFQHLEVGKLVKENHFYTEYDTELDTHIIEEKDEDRLLDFMEPIMVSRGNHVVDYHSSELFPERWFHMVVVLHTSTEVLFERLTKRQYSEAKRAENMEAEIQCICEEEARDAYEDDIVLVRENDTLEQMAATVEEIRERVEVLKVERGL | soluble
HHHHHHENLYFQGSMDALQLANSAFAVDLFKQLSEKEPLGNVLFSPIALSTSLSLAQVGAKGDTANEIGQVLHFENVKDVPFGFQTVTSDVNKLSSFYSLKLIKRLYVDKSLNLSTEFISSTKRPYAKELETVDFKDKLEETKGQINNSIKDLTDGHFENILADNSVNDQTKILVVNAAYFVGKWMKKFSESETKESPFRVNKTDTKPVQMMNMEATFSMGNIDSINSKIIELPFQNKHLSMFILLPKDVEDESTGLEKIEKQLNSESLSQWTNPSTMANAKVKLSIPKFKVEKMIDPKASLENLGLKHIFSEDTSDFSGMSETKGVALSNVIHKVSLEITEDGGDSIEVPGARILQHKDELNADHPFIYIIRHNKTRNIIFFGKFSSP | soluble
MSLGITDSGLSEKQVEKLVRASRPNNPSPDIWARAIKESLEELGQPVDKEHVSAVCAVISQVSAFSISPKNSRMASILRKKIEAAESNEVLRLLIETRLDQTASNGRTFRENIDSIQSELDFEKWYDEFTSASVTKPILLVLKKDASDLITTAGSMQVSVKFAEEYPKKPRNAGGGSVRDMLYTCKGGVFYGTAYLLDYKHNYDDWKYVFADFNAGHYTSRNAGFQKMLGRLTHRMVDTDGDLLSYENGNATPSVTYVTFINFLKDKGIGFDEKKVMKDFQQEKSYDFEETWSYKTLSELYKKKYGHPIYAVLPDIPLNSPKFVSKNLSTKWFAERVKSRYNHCMRTSIEGHHHHHH | soluble
RQGCEARRAHEHLIRLLLEQGKCPEDGWDESTLELFLHELAVMDSNNFLGNCGVGEREGRVASALVARRHYRFIHGIGRSGDISAVQPKAAGSSLLNKITNSLVLNVIKLAGVHSVASCFVVPMATGMSLTLCFLTLRHKRPKAKYIIWPRIDQKSCFKSMVTAGFEPVVIENVLEGDELRTDLKAVEAKIQELGPEHILCLHSTTACFAPRVPDRLEELAVICANYDIPHVVNNAYGLQSSKCMHLIQQGARVGRIDAFVQSLDKNFMVPVGGAIIAGFNEPFIQDISKMYPGRASASPSLDVLITLLSLGCSGYRKLLKERKEMFVYLSTQLKKLAEAHNERLLQTPHNPISLAMTLKTIDGHHDKAVTQLGSMLFTRQVSGARAVPLGNVQTVSGHTFRGFMSHADNYPCAYLNAAAAIGMKMQDVDLFIKRLDKCLNIVRKEQTRA | soluble
MLKKIREEFGCIFARDPAAQSFFEILTVYPGVHAVLIHRFSHWLWNHGLHWPARVLSYLARWATGIEIHPGATLGRRLFIDHGMGVVIGETAVIGDDCTLYHGVTLGGTSWQKGKRHPTLGNGVVVGAGAKVLGPITVGDGARIGSNSVVLRTVPAGATVVGIPGHIINPDRRAQEAQRLAIASRLGFDAYGMTPDMPDPVAHAINHMLDHIQALDQQVAKLKEVLRERGIDLEEAPLPDLDDCQLDPGEPQVTVNSSRTGLEHHHHHH | soluble
MSLTEILIVEDDDIIATLIERFLLQREYVVCAKVATGEDALYKAAEHLPDLVLMDINLAGKIDGITATKFITAIFHIPVIFLSGQDDETTLERATMAEPASFIIKPFNAKDLYSNIEIALHNDRILKRSKDYKGGKIRRIARAALSELDAYFILDKRGRIVFINPYGEHLLNVHRNDIILKPIGKYLTFYDTRQNTVFTDTFQDVIRESLVLGVRQHIAVKMSDNSFRHVVIQSTSIRDSENETIGMIVRMHMKTKSEEGHHHHHH | soluble
MAHHHHHHMNVFDCTLCVATTISQFLVDEVMKQVSLYGGFRHVVRCHGNPQEDFMDVKQSGEPIVLLIANQAGREALKFLCDDYHLPKEQRRVLWIHSISSGLDSYKLNELVKELQDIPLTNARGCYSSILAEHVMYSMLYFYRQTWRSLASRAEHKWDPFLMVELRGRKVGIIGYGDIGRASAKLLSAFGMEVTGVKRSASTKEVDEYGVRLVHGDAERERVLRESDFVVNILPGTEETKRLFNKELFSMMKPSAVYINIGRGITQNEDDLACALRDGVIRGASVDVFEREPLPAESPLWDISDDKILLTYHNAVLSDDFCKKAIDCFMLLARDFGSDGFASNVIQIDKFYCG | soluble
VSAHVATLHPEPPFALCGPRGTLIARGVRTRYCDVRAAQAALRSGTAPILLGALPFDVSRPAALMVPDGVLRARKLPDWPTGPLPKVRVAAALPPPADYLTRIGRARDLLAAFDGPLHKVVLARAVQLTADAPLDARVLLRRLVVADPTAYGYLVDLTSAGNDDTGAALVGASPELLVARSGNRVMCKPFAGSAPRAADPKLDAANAAALASSAKNRHEHQLVVDTMRVALEPLCEDLTIPAQPQLNRTAAVWHLCTAITGRLRNISTTAIDLALALHPTPAVGGVPTKAATELIAELEGDRGFYAGAVGWCDGRGDGHWVVSIRCAQLSADRRAALAHAGGGIVAESDPDDELEETTTKFATILTALGVEQ | not soluble
SLDSPADNPVDSTASDRPVEGRDRDDEGRARNARPRDGLGRPLPYGANGVPRQPEGVVRAPEATVAEAQRLLDDGKPFHAHEVFEDAWKAGPEEERELWRGMAQLAVGLTHSARGNATGGARLLRRGAGAVTAWAASEAGRERPYGMDLGAVAGWARELAGEVEGGGSVDAAARAPRLRG | not soluble
GSPDPEIFRQRFRQFGYQDSPGPREAVSQLRELCRLWLRPETHTKEQILELVVLEQFVAILPKELQTWVRDHHPENGEEAVTVLEDLESELDD | soluble
MDIISLRKSPQYLEEAIAYFQRKWADENSRMVYDNCFRTCLESESPLPQWYLLINGEGEIIGCAGLATNDFNSRMDLYPWLVALFIEEQYRGHNYGNLLIKAVEEDTRRLGFGNLYLCTTHTGYYEHFNFVYIGDCYHPWGEHTR | not soluble
MSLIIMKAITVLSGGLDSTVVTLIAKDLGYEVTAITFNYGQRAAKREINSAKKICEILGIEHIVVDLPFVKQFGKSSLITEKEIPTLKMEELDSEKAYETMKAVWVPARNVIMFGIASGFAEALDAEKIFIGINKEEGVTFPDNTIEFVEAFNKVLEYGTLNKVKIEAPLYDKTKEEIVKLGAELEKKLGVEVLKYSYSCYHDNGEDFLHCGKCESCMRRKRAFLMAGVEDKTKYIEEGHHHHHH | soluble
MKTISNEQLTIQVSPHGAELCSIFANGKEYLWQADPAFWKRHSPVLFPIVGSVWENQYRNEGIAYTLSQHGFARDMEFTLVSEKEDEVRYHLVSNEETLRKFPFPFCLEIGYRIQGKQIEVIWEVKNTGEKEMYFQIGAHPAFYWPDFNADTQNRGFFGFDKEEGLKYILISEKGCADPSTEYSLELTDGLLPLDTHTFDKDALIIENEQIHKVTLYTKEKKAYLSLHFHAPVVGLWSPPAKNAPFVCIEPWYGRCDRAHYTGEYKDKDWMQHLQPEETFRGGYTIEIDELEHHHHHH | not soluble
GWSFEEQFKQVRQLYEINDDPKRKEFLDDLFSFMQKRGTPINRLPIMAKSVLDLYELYNLVIARGGLVDVINKKLWQEIIKGLHLPSSITSAAFTLRTQYMKYLYPYECEKKNLSTPAELQAAIDGNR | soluble
MSGSTESKKQPRRRFIGRKSGNSNNDKLTTVAENGNEIIHKQKSRIALGRSVNHVPEDILNDKELNEAIKLLPSNYNFEIHKTVWNIRKYNAKRIALQMPEGLLIYSLIISDILEQFCGVETLVMGDVSYGACCIDDFTARALDCDFIVHYAHSCLVPIDVTKIKVLYVFVTINIQEDHIIKTLQKNFPKGSRIATFGTIQFNPAVHSVRDKLLNDEEHMLYIIPPQIKPLSRGEVLGCTSERLDKEQYDAMVFIGDGRFHLESAMIHNPEIPAFKYDPYNRKFTREGYDQKQLVEVRAEAIEVARKGKVFGLILGALGRQGNLNTVKNLEKNLIAAGKTVVKIILSEVFPQKLAMFDQIDVFVQVACPRLSIDWGYAFNKPLLTPYEASVLLKKDVMFSEKYYPMDYYEAKGYGRGETPKHAIE | soluble
MAHHHHHHMVRKVWIGQGDVVLVSKRSFNKNDIVDVIHRYNPAEVRALVKDEVIPRDFRSSDERDAKNAHSDYVFVAENDDDGGADDDDQNVLDRNKVVLDDPLATFDEL | not soluble
MATKLQDGNTPCLAATPSEPRPTVLVFDSGVGGLSVYDEIRHLLPDLHYIYAFDNVAFPYGEKSEAFIVERVVAIVTAVQERYPLALAVVACNTASTVSLPALREKFDFPVVGVVPAIKPAARLTANGIVGLLATRGTVKRSYTHELIARFANECQIEMLGSAEMVELAEAKLHGEDVSLDALKRILRPWLRMKEPPDTVVLGCTHFPLLQEELLQVLPEGTRLVDSGAAIARRTAWLLEHEAPDAKSADANIAFCMAMTPGAEQLLPVLQRYGFETLEKLAVLG | soluble
MGSSHHHHHHGKTIFVIVPTNEEQVAFLEALAKQDELNFDWQNPPTEPGQPVVILIPSDMVEWFLEMLKAKGIPFTVYVEEGGSENLYFQGGGGGGLQLKSHQRLAEKPRRDAFVPRAYTVEELAQFDGKKKPQVFVGVKGIIYNVSLEWYGPEGPYSAFAGCDSSRQLGKVIVGRDEINADWTTLAPEHLKTLHEWEERFHSKYPAVGWITDPNKNFVKRAASLSP | not soluble
MGSDKIHHHHHHMTEVIRDIPFLATDRVEALLDIERHLIVEQSTIERWFRGQWQRTPPPFYASVDLRNAGFKLAPVDTNLFSAGFNNLNPEFSALYVSAIQHYLNQYHPGLERVLLIPENHTRNLFYLESVARLRELLELAGLDVRVGSLILEDRTVYDLPSGGQLLLEPLCRDDGRLSTRGFDAQLILLNNDLSGGVPEILAGLEQPILPPLAAGWRNRRKSQHFTHYRAVAQELAEVIGIDPWLIDPVFRRCQGIDFMRSEGRECLVANVDAVLEITRERYAHYGIHQRPFVIVKADAGTYGMGIMTAYSGEEFLDLNRKERTRMAKSKEGLPVSDVFIQEGVYTFEQTAQEAVAEPVVYMIGQQVLGGFYRVHTERGRDENLNAPGAHFEPMAFGQTCVLPCRKSPPDAPANRYYAYGVIARLTLVAAAREMADWRRQGTLETGQ | not soluble
